# Assay results published in US7056679B2, “Target specific screening and its use for identifying target binders” (Antyra, Inc., priority 2001, dated 2006).
# What was measured:
# [1] = target: T1, DGI-2 (Homo sapiens, UniProt Q15004); assay: ELISA analysis of phage on DGI-2 polypeptide (specific binding); conditions: for DGI-2 (OD): binding to DGI-2 polypeptide (specific binding), phage ELISA units read at 405 nm; for DGI-2/LDH (OD): ratio of specific binding to non-specific binding
# T1 construct: encompassed the entire DGI-2 open reading frame (ORF); His-tag of vector pIVEX2.3-MCS (inferred from the vector and from the reverse primer lacking a stop codon); made in house; host or cells: cell-free in vitro translation (Rapid Translation System RTS, Roche; E. coli lysate)
# T1 sequence (Q15004 1-111): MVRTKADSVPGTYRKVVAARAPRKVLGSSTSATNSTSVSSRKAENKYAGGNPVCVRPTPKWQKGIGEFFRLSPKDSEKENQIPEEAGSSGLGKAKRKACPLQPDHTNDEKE
# Experimental: To verify that the selected target binders bound to DGI-2, Elisa assays were performed with recombinant DGI-2. DGI-2 was subcloned and expressed using conventional methods as described below.
# Protein yields were satisfactory, but most of protein was found in inclusion bodies. Next, DGI-2 was expressed using an in vitro translation system (Rapid Translation System RTS 5000, Roche Diagnostics GmbH, Mannheim Germany). For this system, the DGI-2 ORF was cloned into the pIVEX2.3-MCS vector (Roche Diagnostics) using restriction sites Nde I and Hind III, which were added to DGI-2 by PCR. […] The primers used for the PCR amplification were as follows: […]
# (§1) For analysis of individual target binders, colonies were picked and phage prepared as described above using helper phage, M13KO7. Ninety-six-well microtiter plates were coated with 500 ng/well of specific target protein, 500 ng/well lactate dehydrogenase (LDH) irrelevant or non-specific target, 500 ng/well of positive control antibody raised against ETAG, and negative control of non-fat milk powder-PBS 2% at 4° C. overnight. Plates were then blocked with 350 microliters/well PBS containing 2% non-fat milk for 1 hr at room temperature. One hundred microliters per well of phage from isolated clones were added and plates were incubated at room temperature for 2 hr after centrifuging samples for 20 minutes at 3500 rpm at 4° C. The phage solution was then removed, and the wells were washed three times with PBS at room temperature. Antibody raised against M13 conjugated to horseradish peroxidase (Pharmacia) was diluted 1:3000 in PBS-Tween and added to each well (100 μl/well). Incubation was for 1 hr at room temperature, followed by washing with PBS-(0.5%) Tween 3 times as described. Color was developed by addition of ABTS solution (100 μl/well; Boehringer, Indianapolis, Ind.). Plates were analyzed at 405 nm. A clone was considered “positive” if the A405 of the well was ≧2-fold over background.
# [2] = tested on: lactate dehydrogenase (LDH); assay: ELISA analysis of phage on LDH (irrelevant, non-specific target); assay type: binding; conditions: peptide binding to LDH polypeptide (non-specific binding); phage ELISA units read at 405 nm
# Experimental: as §1
# [3] = tested on: E-tag antibody; assay: ELISA analysis of phage on antibody raised against ETAG (positive control); conditions: peptide binding to E-tag antibody; phage ELISA units read at 405 nm
# Experimental: as §1
Substance,DGI-2 (OD) [1] [OD],DGI-2/LDH (OD) [1],LDH (OD) [2] [OD],ETAG (OD) [3] [OD]
HSGNRQSGSRRTHLLNIFCSSDTFVFPGWSAYLSRVCPGD (DGI-2-40F-3-B122; listed as Escherichia coli),1.7,2.2,0.8,11.0
QMSRVAFSPGESWRRWVEGV (DGI-2-20R-3-A2; listed as Escherichia coli),7.5,7.5,1.0,14.2
GRWDGWEVCGIWGADDCASG (DGI-2-20R-4-H1; listed as Escherichia coli),9.3,7.8,1.2,14.0
GGDLGEQGVQLCPDVVRGGSL (DGI-2-20F-PP-A7; listed as Escherichia coli),2.6,2.8,0.9,42.2
DRHRAFVAEGLDGFRHSTGV (DGI-2-20F-PP-D4; listed as Escherichia coli),2.6,2.3,1.1,44.0
DVGAVVRSGHCASRPGE*QVR (DVGAVVRSGHCASRPGEQVR; DGI-2-20F-PP-H9; listed as Escherichia coli),1.6,1.5,1.1,13.6
VWRDWVNGTVGLRNREKPGV (DGI2-20R-3-A5; listed as Escherichia coli) [DGI-2-20R-3-A5],10.9,9.8,1.1,14.9
LVIQCSASVVACDLYWNYVGCLAAG (DGI-2-20C-3-D12; listed as Escherichia coli),1.1,1.1,1.0,3.6
LTPYSLARSWLSGRPSTGAT (DGI-2-20F-3-C12; listed as Escherichia coli),3.2,3.1,1.0,15.1
QMIFSKGNWLAHPEGGVALGLSRESQLFRSCREFGYCMGPM [DGI-2-40F-3-C6],2.3,2.8,0.8,10.1
TPVAISIPAGVCSTSVCGRD (DGI-2-20F-PP-C11; listed as Escherichia coli),2.4,2.6,0.9,3.2
RCFQDGRMLALSPTYLIRRSVSPLVVGPLPTP (DGI-2-40F-3-A24; listed as Escherichia coli),1.3,1.4,0.9,11.7
YAMSSRECGIRNSGLILSMW (DGI-2-20F-PP-C9; listed as Escherichia coli),3.5,3.9,0.9,31.6
RSRSSSGASGSMLRVQNHMVLGSWMVRQPMGSMTPFHGHG (DGI-2-40F-3-B5; listed as Escherichia coli),1.0,1.2,0.9,9.2
CYLSRLFRSGQGIGQFGHVE (DGI-2-20F-PP-A82; listed as Escherichia coli),2.5,2.3,1.1,16.5
RNWLDKDCVWMGDCGARAGE (DGI-2-20F-4-E3; listed as Escherichia coli),3.8,4.1,0.9,16.9
GAIRLSGAAWTASRTGGRAS (DGI-2-20F-PP-E7; listed as Escherichia coli),1.6,1.8,0.9,21.5
MGVVLECEGGWSIPGQTCYF (DGI-2-20R-3-C7; listed as Escherichia coli),5.1,5.1,1.0,18.0
RSQVRVVSRERSTPVLIHIRIECLLFSGWCVTSGSDEGVVWG [DGI-2-40F-4-F122],4.7,5.7,0.8,8.1

# Now from value to substance, other results behind:
DGI-2 (OD) [1] [OD],DGI-2/LDH (OD) [1],LDH (OD) [2] [OD],Substance,ETAG (OD) [3] [OD]
6.0,5.2,1.1,GIMQVAWGWREMTRLWDLGMA (GIMQVAWGWREWRLWDLGMA; DGI-2-20R-3-C6; listed as Escherichia coli),20.3
1.6,1.6,0.9,WAGSTDLWQLWSLWVKPELR (DGI-2-20F-3-B7; listed as Escherichia coli),16.4
1.0,1.1,0.8,LWLPCGLLVRPAQFYFYFSPLRHFLSSSVGSLSFPLSLLV (DGI-2-40F-3-B4; listed as Escherichia coli),1.5
1.6,1.3,1.2,LTWGPQFGSLQVYSRHRGLP (DGI-2-20R-4-E4; listed as Escherichia coli),18.1
1.6,2.0,0.8,VSGY#SLWWCGPGWGPRSGR (VSGYSLWWCGPGWGPRSGR; DGI-2-20F-PP-H11; listed as Escherichia coli),2.1
6.9,6.4,1.1,RSIRLQLIDEACQFFDGLCT (DGI-2-20R-3-A8; listed as Escherichia coli),15.3
6.2,5.9,1.1,RRILPWSFPGCGRMC (DGI-2-20R-3-A10; listed as Escherichia coli) [DGJ-2-20R-3-A10],16.4
3.3,2.9,1.1,RSYPRLCKQKGGVIGRMLPG (DGI-2-20F-PP-B2; listed as Escherichia coli),35.9
7.9,6.5,1.2,VSFAHDWGRWWYQWEVG (DGI-2-20R-4-G22; listed as Escherichia coli),12.9
3.0,2.6,1.2,EVFVSVWVFRFRVMPVTPGGT (DGI-2-20F-PP-E6; listed as Escherichia coli),4.1
0.9,1.2,0.8,QSNVWVLVGVIMQGVWYQRQHYCVYVMLLSDQVSVLLAVA (DGI-2-40F-3-B6; listed as Escherichia coli),1.8
2.8,3.0,1.0,CRNFGVIWGAGWVSPGCEDJ (CRNFGVIWGAGWVSPGCEDI; not fully specified; non-natural residue J; DGI-2-20F-3-A1; listed as Escherichia coli) [DGI-2-20E-3-A1],14.3
